Measured values reported in patent US8241627B2, “Modified polypeptides stabilized in a desired conformation and methods for producing same” (The Center for Blood Research, Inc., priority 2000, dated 2012).

Assays:
[1] = target: T1, ICAM-1 (Homo sapiens, UniProt P05362); test: BIAcore binding of soluble αL I-domains to ICAM-1
Protocol: (§1) Briefly, recombinant mutant αL I-domain stabilized in the open conformation (K287C/K294C), or recombinant wild-type αL I-domain from amino acid residue G128 to Y307, were cloned into pET11b (Novagen) and expressed in E. coli induced with 1 mM IPTG for 4 hours. The recombinant proteins were purified from inclusion bodies by solubilization of inclusion bodies in 6M guanidine HCl and were refolded by dilution in the presence of 0.1 mM Cu^2+/phenanthrolin to enhance formation of disulfide bonds. Protein was concentrated by ammonium sulfate precipitation, dialyzed, and purified over a monoQ ion-exchange column. […] The recombinant proteins were then purified by gel filtration and concentrated by Centriprep. For BIAcore™ analysis, recombinant ICAM-1, ICAM-2 and ICAM-3 Fc chimeras were immobilized on the BIAcore™ sensor chip by an amine-coupling method. Recombinant αL I-domains were flowed in, and BIAcore™ assays were performed with Tris-buffered saline supplemented with 1 mM MgCl2 or 2 mM EDTA, at a flow rate of 10 μl/minute at 25° C.
Target sequence in this assay (P05362 28-480 limits assumed): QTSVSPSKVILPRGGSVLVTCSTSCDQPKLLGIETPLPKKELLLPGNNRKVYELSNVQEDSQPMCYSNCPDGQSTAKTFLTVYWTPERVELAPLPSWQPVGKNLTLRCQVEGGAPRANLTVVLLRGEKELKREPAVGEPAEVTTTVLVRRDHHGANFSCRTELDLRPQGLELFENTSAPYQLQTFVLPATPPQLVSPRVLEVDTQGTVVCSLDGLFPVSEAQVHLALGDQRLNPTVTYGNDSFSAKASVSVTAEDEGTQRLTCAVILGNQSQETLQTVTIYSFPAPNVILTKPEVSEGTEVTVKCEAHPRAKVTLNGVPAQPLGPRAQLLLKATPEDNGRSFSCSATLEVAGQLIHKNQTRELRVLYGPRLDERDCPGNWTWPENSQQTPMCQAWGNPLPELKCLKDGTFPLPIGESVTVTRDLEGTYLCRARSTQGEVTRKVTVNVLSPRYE

[2] = target: T2, ICAM-2 (Homo sapiens, UniProt P13598); test: BIAcore binding of soluble αL I-domains to ICAM-2; conditions: 1:1 interaction model
T2 sequence (P13598 25-223 limits assumed): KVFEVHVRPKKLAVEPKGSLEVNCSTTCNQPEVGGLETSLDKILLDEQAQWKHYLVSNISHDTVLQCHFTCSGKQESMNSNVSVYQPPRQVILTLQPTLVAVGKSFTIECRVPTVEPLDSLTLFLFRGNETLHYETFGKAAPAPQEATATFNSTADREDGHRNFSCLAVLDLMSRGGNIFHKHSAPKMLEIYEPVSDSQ
Protocol: as §1

[3] = target: T3, ICAM-3 (Homo sapiens, UniProt P32942); test: BIAcore binding of soluble αL I-domains to ICAM-3; conditions: 1:1 interaction model
T3 sequence (P32942 30-485 limits assumed): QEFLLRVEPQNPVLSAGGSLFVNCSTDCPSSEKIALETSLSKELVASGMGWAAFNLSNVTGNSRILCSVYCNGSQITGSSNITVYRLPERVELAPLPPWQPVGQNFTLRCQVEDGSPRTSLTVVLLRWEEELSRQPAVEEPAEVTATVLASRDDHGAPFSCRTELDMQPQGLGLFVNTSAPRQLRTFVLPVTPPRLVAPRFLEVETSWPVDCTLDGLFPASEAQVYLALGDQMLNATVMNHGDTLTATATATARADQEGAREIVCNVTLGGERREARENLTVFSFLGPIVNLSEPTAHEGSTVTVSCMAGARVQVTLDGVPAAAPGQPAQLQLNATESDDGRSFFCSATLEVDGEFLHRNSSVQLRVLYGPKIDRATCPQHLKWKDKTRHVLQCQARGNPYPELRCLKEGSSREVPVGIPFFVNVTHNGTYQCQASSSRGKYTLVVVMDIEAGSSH
Protocol: as §1

[4] = target: T1, ICAM-1; test: Binding of LFA-1 or isolated I-domain transfectants to immobilized ICAM-1; type: cell-based; set-up: ICAM-1 was purified from human tonsil; from tissue; host or cells: human tonsil
Protocol: Clones of the transfectants that expressed similar levels of cell surface LFA-1, as determined by flow cytometry using monoclonal antibody TS2/4 (FIG. 3B), were tested for their ability to bind to immobilized ICAM-1, as previously described (Lu, C and Springer, T A (1997) J Immunol 159:268-278).
Briefly, ICAM-1 was purified from human tonsil, and coated to 96-well plates as described previously (Lu, C and Springer T A, (1997) J Immunol 159:268-278). Cells were labeled with a florescence dye 2′,7′-bis-(carboxyethyl)-5(and-6)-carboxyfluorescein, acetoxymethyl ester (BCECF-AM), and resuspended to 1×10^6/ml in L15/FBS. 50 μl cell suspension was mixed in ICAM-1 coated wells with an equal volume of L15/FBS in the absence or presence of monoclonal antibody (CBRLFA-1/2, 10 μg/ml). Monoclonal antibodies were used at final concentration of 1:20 hybridoma supernatant, 1:200 ascites, or μg/ml purified IgG. For testing the effect of divalent cations, BCECF-AM-labeled cells were washed 2× with TS buffer, pH7.5 (20 mM Tris, pH 7.5, 150 mMNaCl) containing 5 mM EDTA, followed by 2 washes with TS buffer, pH7.5. Cells were then resuspended to 5×10^5/ml in the TS buffer, pH7.5 supplemented with 1 mM MgCl2/CaCl2, MgCl2, MnCl2 mM EDTA, and 100 μl cell suspension was added to ICAM-1 coated wells. After incubation at 37° C. for 30 minutes, unbound cells were washed off on a Microplate Autowasher (Bio-Tek Instruments, Winooski, Vt.). The fluorescence content of total input cells and the bound cells in each well was quantitated on a Fluorescent Concentration Analyzer (IDEXX, Westbrook, Me.). The bound cells were expressed as a percentage of total input cells per sample well.
For generating stable K562 transfectants that express the I-domain on the surface, 20 μg of SspI-linearized pcDNA3.1/Hygro(+) containing the sequences encoding the I domain and the PDGFR transmembrane domain was used to transfect K562 cells by electroporation as described above. Transfectants were selected for resistance to 100 μg/ml hygromycin B, and were further subcloned by cell sorting and limiting dilution; clones that expressed similar levels of surface wild-type and mutant I domain-PDGFR were selected for functional studies. Stable cell lines were maintained in RPMI medium 1640 supplemented with 10% FBS and 100 μg/ml hygromycin B. Cell surface expression of the isolated I-domains was determined by flow cytometry using antibody TS1/22 to the I-domain (FIG. 7). Two clones from each transfectant were selected and tested for binding to immobilized ICAM-1, and similar results were obtained with each of the two clones (FIG. 8A).
If the constitutive ligand binding activity of mutant K287C/K294C is due to the formation of a disulfide bond between the introduced C287 and C294, disruption of the disulfide bond with a reducing agent would abolish ligand binding ability of the mutant. Accordingly, the transfectants were treated with the reducing agent DTT (10 mM) in L15/FBS containing Mg^2+ and Ca^2+, and the ability of transfectants to bind to ICAM-1 was assessed.
Furthermore, the effect of divalent cations on ligand binding of the isolated I-domains expressed on the surface of K562 transfectants was tested. The binding reactions were performed in HEPES/NaCl/glucose (20 mM HEPES, pH 7.5, 140 mM NaCl, 2 mg/ml glucose) supplemented with 1 mM […], 1 mM Mg^2+, or 1 mM EDTA.
Target sequence in this assay (P05362 28-532): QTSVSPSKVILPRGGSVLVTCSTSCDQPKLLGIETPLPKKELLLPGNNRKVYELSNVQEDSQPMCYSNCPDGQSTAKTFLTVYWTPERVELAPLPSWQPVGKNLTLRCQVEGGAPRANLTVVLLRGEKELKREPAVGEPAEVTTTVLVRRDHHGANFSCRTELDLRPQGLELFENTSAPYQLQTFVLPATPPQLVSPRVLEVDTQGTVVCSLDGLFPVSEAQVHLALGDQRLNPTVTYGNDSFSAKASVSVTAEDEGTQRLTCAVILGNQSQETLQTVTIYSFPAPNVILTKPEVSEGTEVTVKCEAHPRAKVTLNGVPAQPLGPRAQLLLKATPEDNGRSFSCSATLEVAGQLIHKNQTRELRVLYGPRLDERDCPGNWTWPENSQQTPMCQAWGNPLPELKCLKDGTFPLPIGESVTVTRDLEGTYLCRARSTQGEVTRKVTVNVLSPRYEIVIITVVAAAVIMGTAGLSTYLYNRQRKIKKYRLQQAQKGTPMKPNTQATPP

[5] = BIAcore, 1:1 interaction model, 1 mM MgCl2, 25° C.

B1: K287C/K294C: human αL (LFA-1) I-domain with K287 and K294 replaced by cysteines; high affinity locked open; tested in intact LFA-1, cell-surface and soluble forms (protein)
chain: GNVDLVFLFDGSMSLQPDEFQKILDFMKDVMKKLSNTSYQFAAVQFSTSYKTEFDFSDYVKRKDPDALLKHVKHMLLLTNTFGAINYVATEVFREELGARPDATKVLIIITDGEATDSGNIDAAKDIIRYIIGIGKHFQTKESQETLHKFASKPASEFVCILDTFECLKDLFTELQKKIY
notes: human αL (LFA-1) I-domain with K287 and K294 replaced by cysteines; tested in intact LFA-1, cell-surface and soluble forms
[1]; 2 mM EDTA, ligands ICAM-1, -2, -3
  interaction of I-domain with ligands in the presence of EDTA: abolished
[1]; [5]
  Koff, open I-domain binding to ICAM-1: 0.0230 s⁻¹
  Kon, open I-domain binding to ICAM-1: 128000 M⁻¹ s⁻¹
[1]; calculated by Koff/KD
  Kon, interaction of αL I-domains with ICAM-1: 128000 M⁻¹ s⁻¹
[1]; curve fitting of dissociation phase, 1:1 binding model
  Koff, interaction of αL I-domains with ICAM-1: 0.0230 s⁻¹
[2]
  Koff, open I-domain binding to ICAM-2: 0.0118 s⁻¹
  Kon, open I-domain binding to ICAM-2: 23000 M⁻¹ s⁻¹
[3]
  Koff, open I-domain binding to ICAM-3: 0.0749 s⁻¹
  Kon, open I-domain binding to ICAM-3: 19000 M⁻¹ s⁻¹
[4]; 293T, no activating antibody
  binding of 293T transient transfectants to immobilized ICAM-1: constitutively strong binding
[4]; I-domain on cell surface via PDGFR transmembrane domain
  binding of K562 cells expressing isolated I-domains to immobilized ICAM-1: strong binding
[4]; K562, 1 mM EDTA
  binding of isolated I-domain to ICAM-1 after EDTA treatment: abolished
[4]; K562, CBRLFA-1/2 10 μg/ml
  binding of K562 stable transfectants to immobilized ICAM-1 with activating mAb CBRLFA-1/2: did not further enhance binding
[4]; K562, intact LFA-1, EDTA
  binding of K562 transfectants to ICAM-1 in the presence of EDTA: abolished
[4]; K562, no activating antibody
  binding of K562 stable transfectants to immobilized ICAM-1: strongly bound
[4]; K562 transfectants, DTT 10 mM in L15/FBS
  effect of DTT treatment on binding to ICAM-1: abolished
